Results published in publication PMC3296483 (Biochemical Journal, 2011).

B1: rat GluA1 amino-terminal domain (P4-A374), tags removed (domain or fragment, UniProt P19490 22-392, looked up)
chain: PNNIQIGGLFPNQQSQEHAAFRFALSQLTEPPKLLPQIDIVNISDSFEMTYRFCSQFSKGVYAIFGFYERRTVNMLTSFCGALHVCFITPSFPVDTSNQFVLQLRPELQEALISIIDHYKWQTFVYIYDADRGLSVLQRVLDTAAEKNWQVTAVNILTTTEEGYRMLFQDLEKKKERLVVVDCESERLNAILGQIVKLEKNGIGYHYILANLGFMDIDLNKFKESGANVTGFQLVNYTDTIPARIMQQWRTSDSRDHTRVDWKRPKYTSALTYDGVKVMAEAFQSLRRQRIDISRRGNAGDCLANPAVPWGQGIDIQRALQQVRFEGLTGNVQFNEKGRRTNYTLHVIEMKHDGIRKIGYWNEDDKFVPAA

Legend:
[1] = target: GluA2 ATD (Rattus norvegicus) (UniProt P19491); conditions: cited from earlier work
Chain of GluA2 ATD (Rattus norvegicus) (P19491 22-398): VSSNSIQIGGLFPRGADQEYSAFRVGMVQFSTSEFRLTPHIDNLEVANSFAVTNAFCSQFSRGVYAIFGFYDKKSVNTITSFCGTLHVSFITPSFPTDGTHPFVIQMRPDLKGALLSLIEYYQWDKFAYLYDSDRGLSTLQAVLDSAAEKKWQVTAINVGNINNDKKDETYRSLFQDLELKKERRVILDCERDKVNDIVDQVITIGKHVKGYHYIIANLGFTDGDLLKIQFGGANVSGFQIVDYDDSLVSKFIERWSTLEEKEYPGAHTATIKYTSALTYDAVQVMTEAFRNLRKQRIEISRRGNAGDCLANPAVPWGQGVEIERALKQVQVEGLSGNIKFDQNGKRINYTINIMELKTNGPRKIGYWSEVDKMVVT

crystal structure = target: the molecule itself; test: crystal structure

Row | Molecule | Kd [1] [nM] | binding result (crystal structure)
1 | GluA1 ATD (from UniProt P19490) | 0.4 | 
2 | B1 |  | binds
